Measured values as given in IntAct's records for PubMed 33097660.

B1: ORF6 protein (SARS-CoV-2), P0DTC6 (parent)
chain: MFHLVDFQVTIAEILLIIMRTFKVSIWNLDYIINLIIKNLSKSLTENKYSQLDEEQPMEID

Variants of: B1
Conditions: with ima5_human KPNA1, P52294
Chain of ima5_human KPNA1, P52294 (P52294 whole entry): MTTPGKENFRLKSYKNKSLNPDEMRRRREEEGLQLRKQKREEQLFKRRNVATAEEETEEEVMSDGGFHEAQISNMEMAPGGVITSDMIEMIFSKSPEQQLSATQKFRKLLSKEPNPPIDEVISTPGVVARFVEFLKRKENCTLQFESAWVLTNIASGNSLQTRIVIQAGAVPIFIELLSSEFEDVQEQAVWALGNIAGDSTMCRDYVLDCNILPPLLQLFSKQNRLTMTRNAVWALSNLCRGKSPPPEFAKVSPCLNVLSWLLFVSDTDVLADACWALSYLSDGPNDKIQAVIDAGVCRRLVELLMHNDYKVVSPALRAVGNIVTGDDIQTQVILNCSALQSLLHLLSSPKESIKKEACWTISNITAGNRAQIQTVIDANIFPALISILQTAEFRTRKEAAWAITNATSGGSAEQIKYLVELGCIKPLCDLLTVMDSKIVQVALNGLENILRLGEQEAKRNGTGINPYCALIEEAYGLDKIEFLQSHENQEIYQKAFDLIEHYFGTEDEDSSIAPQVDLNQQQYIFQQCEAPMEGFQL

Variant | effect of a mutation on the interaction
M58R | with no effect

Variants of: B1
Conditions: with ima1_human KPNA2, P52292

Variant | effect of a mutation on the interaction
M58R | with no effect

Variants of: B1
Conditions: with nup98_human NUP98, P52948
Chain of nup98_human NUP98, P52948 (P52948 whole entry): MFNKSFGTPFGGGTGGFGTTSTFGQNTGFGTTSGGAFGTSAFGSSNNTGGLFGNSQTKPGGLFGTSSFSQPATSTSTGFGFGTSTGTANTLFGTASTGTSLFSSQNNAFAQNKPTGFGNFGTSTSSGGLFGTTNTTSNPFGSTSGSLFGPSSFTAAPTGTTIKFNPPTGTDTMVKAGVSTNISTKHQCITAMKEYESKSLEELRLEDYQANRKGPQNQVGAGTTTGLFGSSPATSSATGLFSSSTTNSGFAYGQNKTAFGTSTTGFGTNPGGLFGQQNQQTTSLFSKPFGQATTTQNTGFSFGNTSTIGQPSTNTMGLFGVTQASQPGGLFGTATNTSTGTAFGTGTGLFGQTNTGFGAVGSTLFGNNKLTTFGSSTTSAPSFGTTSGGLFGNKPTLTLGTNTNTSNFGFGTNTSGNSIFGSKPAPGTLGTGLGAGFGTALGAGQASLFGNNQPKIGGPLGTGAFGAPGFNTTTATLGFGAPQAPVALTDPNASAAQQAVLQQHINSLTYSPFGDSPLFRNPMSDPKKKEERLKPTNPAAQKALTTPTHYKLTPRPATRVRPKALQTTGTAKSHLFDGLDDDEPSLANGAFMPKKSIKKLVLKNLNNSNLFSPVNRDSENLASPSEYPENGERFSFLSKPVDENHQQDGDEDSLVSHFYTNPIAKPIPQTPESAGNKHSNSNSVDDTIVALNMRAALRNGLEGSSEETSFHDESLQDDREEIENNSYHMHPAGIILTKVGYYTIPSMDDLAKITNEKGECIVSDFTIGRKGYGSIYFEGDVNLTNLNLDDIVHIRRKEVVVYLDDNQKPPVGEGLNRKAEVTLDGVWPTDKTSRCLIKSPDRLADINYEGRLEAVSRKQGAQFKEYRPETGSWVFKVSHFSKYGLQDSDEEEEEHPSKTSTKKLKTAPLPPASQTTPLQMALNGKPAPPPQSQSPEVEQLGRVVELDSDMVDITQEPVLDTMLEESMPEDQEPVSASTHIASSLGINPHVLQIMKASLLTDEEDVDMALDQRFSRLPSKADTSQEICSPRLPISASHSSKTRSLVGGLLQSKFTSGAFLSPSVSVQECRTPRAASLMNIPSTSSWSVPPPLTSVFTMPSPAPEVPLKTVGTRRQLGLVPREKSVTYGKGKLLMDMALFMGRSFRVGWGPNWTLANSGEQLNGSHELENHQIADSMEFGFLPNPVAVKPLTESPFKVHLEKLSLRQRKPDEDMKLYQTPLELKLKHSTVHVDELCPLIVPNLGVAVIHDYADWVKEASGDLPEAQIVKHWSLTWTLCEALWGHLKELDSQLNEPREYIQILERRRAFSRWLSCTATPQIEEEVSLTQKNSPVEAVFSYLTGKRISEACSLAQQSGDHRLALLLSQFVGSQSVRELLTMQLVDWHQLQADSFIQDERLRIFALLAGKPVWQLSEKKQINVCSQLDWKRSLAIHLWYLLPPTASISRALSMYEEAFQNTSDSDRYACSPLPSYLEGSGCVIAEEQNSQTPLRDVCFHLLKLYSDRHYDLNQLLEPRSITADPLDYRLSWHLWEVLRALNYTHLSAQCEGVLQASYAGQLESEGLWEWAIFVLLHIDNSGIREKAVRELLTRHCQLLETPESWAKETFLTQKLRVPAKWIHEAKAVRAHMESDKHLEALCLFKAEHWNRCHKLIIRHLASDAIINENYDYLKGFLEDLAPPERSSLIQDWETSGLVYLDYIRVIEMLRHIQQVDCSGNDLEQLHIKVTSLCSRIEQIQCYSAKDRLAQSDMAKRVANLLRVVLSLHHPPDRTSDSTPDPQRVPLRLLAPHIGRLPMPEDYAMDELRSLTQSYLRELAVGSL

Variant | effect of a mutation on the interaction
M58R | disrupting interaction strength
